Assay results published in patent US20260109770A1 (REMD BIOTHERAPEUTICS, published 2026).
Like-named read-outs stand apart in the source and are kept apart here.

Columns and labels:
[1] = target: T1, human C-C chemokine receptor type 8 (hCCR8) (human, UniProt P51685 1-355); experiment: cell-based or functional assay
human CCR4 (hCCR4) = target: T2, human CCR4 (hCCR4) (human, UniProt P51679 1-360); experiment: flow cytometry on hCCR4-expressing CHO-K1 cells against parental CHO-K1 cells
T2 construct: whole, on cells
T2 sequence (looked up): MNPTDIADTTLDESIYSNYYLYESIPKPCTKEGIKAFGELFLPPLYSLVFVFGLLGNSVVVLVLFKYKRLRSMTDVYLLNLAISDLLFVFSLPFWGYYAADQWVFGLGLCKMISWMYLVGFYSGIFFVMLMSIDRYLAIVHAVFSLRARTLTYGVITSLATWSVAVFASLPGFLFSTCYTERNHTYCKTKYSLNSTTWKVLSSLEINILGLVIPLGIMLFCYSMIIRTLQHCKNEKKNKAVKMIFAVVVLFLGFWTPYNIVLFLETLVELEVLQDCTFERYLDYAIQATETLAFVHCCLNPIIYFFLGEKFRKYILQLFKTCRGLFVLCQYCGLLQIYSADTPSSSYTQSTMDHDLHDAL
Description: The antibodies were further screened for binding to human CCR4 (hCCR4) by flow cytometry. The antibodies were incubated with CHO-K1 cells and hCCR4-expressing CHO-K1 cells for 60 minutes at 4° C. The cells were washed thoroughly with PBS buffer and were then incubated with FITC-conjugated goat anti-mouse IgG Fc antibody or anti-human IgG Fc antibody. Mean Fluorescence Intensity (MFI) of antibody binding on the cells were analyzed by flow cytometry (Table 7).

[2] = target: T1, human C-C chemokine receptor type 8 …; experiment: cell-based or functional assay; remark: listed apart in the source
[3] = target: T1, human C-C chemokine receptor type 8 …; experiment: cell-based or functional assay; remark: listed apart in the source
[4] = target: T1, human C-C chemokine receptor type 8 …; experiment: cell-based or functional assay; remark: listed apart in the source
[5] = target: T3, biotinylated recombinant human CTLA-4-Fc chimera (#786704, BioLegend) (human, UniProt P16410 37-162, biotinylated); experiment: flow cytometry: hCCR8-expressing HEK293 cells pre-loaded with the antibody, washed, incubated with biotinylated human CTLA-4-Fc, detected with PE-streptavidin [panel B]
T3 construct: Bought reagent; Fc part of the bought chimera not given
T3 sequence (looked up): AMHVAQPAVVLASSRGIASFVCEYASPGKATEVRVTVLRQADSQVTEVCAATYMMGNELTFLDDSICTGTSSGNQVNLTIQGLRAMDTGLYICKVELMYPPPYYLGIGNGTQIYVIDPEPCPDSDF
Description: (§1) Bispecific antibodies FP578-01 and FP578-02 and anti-hCCR8 antibodies 504E12D8D12-HC1+LC1 (G34A) and 504E12D8D12-HC1+LC1 were incubated with hCCR8-expressing HEK293 cells for 1 hour at 4° C. The cells were washed and then incubated with biotinylated recombinant human CTLA-4-Fc chimera (#786704, BioLegend) for 1 hour at 4° C. After the cells were thoroughly washed, CTLA-4 was detected with phycoerythrin (PE)-conjugated streptavidin (#405203, BioLegend) by flow cytometry.

[6] = target: T1, human C-C chemokine receptor type 8 …; experiment: cell-based or functional assay; remark: listed apart in the source
[7] = target: T1, human C-C chemokine receptor type 8 …; experiment: KinExA, hCCR8-expressing HEK293 cells
Description: (§2) Humanized antibodies 504E12D8D12-HC1+LC1 and 504E12D8D12-HC1+LC1 (G34A) were tested by the Kinetic Exclusion Assay (KinExA, Sapidyne Instruments) to determine the affinity of binding to hCCR8-overexpressing cells. Briefly, polystyrene particles (#442178, Sapidyne Instruments) were coated with goat anti-human IgG Fc-specific Fab fragment (#109-007-008, Jackson ImmunoResearch Lab) according to the manufacturer's protocol. The antibodies were incubated with serial dilutions of hCCR8-expressing HEK293 cells at room temperature overnight by gently rotating to achieve equilibrium. The final antibody concentrations were adjusted to 0.05 nM and 1 nM, respectively. The supernatants were collected and run on KinExA 3200 (Sapidyne Instruments), and the antibody was captured by the coated polystyrene particles. The captured antibody was detected with Alexa Fluor 647-conjugated goat anti-human IgG (H+L) antibody (#109-605-003, Jackson ImmunoResearch Lab). Data was recorded and analyzed using KinExA Pro software (version 4.3.20).

[8] = target: T3, biotinylated recombinant human …; experiment: flow cytometry: hCCR8-expressing HEK293 cells pre-loaded with the antibody, washed, incubated with biotinylated human CTLA-4-Fc, detected with PE-streptavidin [panel A]
Description: as §1

[9] = target: T3, biotinylated recombinant human …; experiment: flow cytometry: hCCR8-expressing HEK293 cells pre-loaded with the antibody, washed, incubated with biotinylated human CTLA-4-Fc, detected with PE-streptavidin [panel C]
Description: as §1

[10] = target: T1, human C-C chemokine receptor type 8 …; experiment: cell-based or functional assay; remark: listed apart in the source
[11] = target: T1, human C-C chemokine receptor type 8 …; experiment: KinExA, hCCR8-expressing cells
Description: as §2
The affinity of bispecific antibodies FP578-01 and FP578-02 were determined by the kinetic exclusion assay as described above.

[12] = target: T3, biotinylated recombinant human …; experiment: flow cytometry: hCCR8-expressing HEK293 cells pre-loaded with the antibody, washed, incubated with biotinylated human CTLA-4-Fc, detected with PE-streptavidin [panel D]
Description: as §1

T1 sequence (P51685 whole entry): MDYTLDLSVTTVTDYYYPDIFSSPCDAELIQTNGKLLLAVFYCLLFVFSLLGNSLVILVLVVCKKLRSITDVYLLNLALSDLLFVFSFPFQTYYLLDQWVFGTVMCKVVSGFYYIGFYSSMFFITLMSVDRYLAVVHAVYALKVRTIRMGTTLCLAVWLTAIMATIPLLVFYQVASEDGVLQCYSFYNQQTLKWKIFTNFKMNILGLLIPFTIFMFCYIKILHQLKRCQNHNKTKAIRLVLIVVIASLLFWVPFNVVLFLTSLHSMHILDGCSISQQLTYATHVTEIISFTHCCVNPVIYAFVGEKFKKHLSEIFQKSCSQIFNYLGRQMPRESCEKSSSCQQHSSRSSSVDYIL

B1: mouse antibody 41E1C2A5 (MAb 1) (antibody, V domains shown)
VH: EVQLVESGGGLVQPKGSLKLSCAASGFSFNAYAMNWVRQAPGKGLEWVARIRSKSNNYATYYADSVKDRFTISRDDSETMLYLQMNNLKTEDTAMYFCVRGGTYGSSSYFDYWGQGTTLTVSS
VL: DIVMTQAAPSVPVTPGESVSIPCRSSKSLLHSNGNTYLYWFLQRPGQSPQLLIYRMSNLASGVPDRFSGSGSGTAFTLRISRVEAEDVGVYYCMQHLEYPFTFGGGTKLQIR
notes: Mouse monoclonal antibody from a hybridoma; also called A1
IC50 (nM), antagonist activity measured by β-arrestin assay [1]: 4.68 nM
binding result (human CCR4 (hCCR4)): no binding
inhibition of β-arrestin production (CCR8 CHO-K1 β-arrestin bioassay, 2 nM hCCL1, subclone supernatant) [2]: ≥ 50%

B2: murine-human chimeric (human IgG1) antibody 41E1C2A5 (antibody, V domains shown)
VH: EVQLVESGGGLVQPKGSLKLSCAASGFSFNAYAMNWVRQAPGKGLEWVARIRSKSNNYATYYADSVKDRFTISRDDSETMLYLQMNNLKTEDTAMYFCVRGGTYGSSSYFDYWGQGTTLTVSS
VL: DIVMTQAAPSVPVTPGESVSIPCRSSKSLLHSNGNTYLYWFLQRPGQSPQLLIYRMSNLASGVPDRFSGSGSGTAFTLRISRVEAEDVGVYYCMQHLEYPFTFGGGTKLQIRR
EC50 of ADCC activity (column head prints IC50 (nM)); ADCC/NFAT-reporter-Jurkat bioassay [3]: 0.049 nM

B3: humanized antibody 41E1C2A5-HC3+LC4 (antibody, human IgG1, kappa, V domains shown)
VH: EVQLVESGGGLVQPGGSLKLSCAASGFSFNAYAMNWVRQASGKGLEWVARIRSKSNNYATYYADSVKDRFTISRDDSKNTAYLQMNSLKTEDTAVYFCVRGGTYGSSSYFDYWGQGTTVTVSS
VL: DIVMTQSPLSLPVTPGEPASIPCRSSKSLLHSNGNTYLYWFLQKPGQSPQLLIYRMSNLASGVPDRFSGSGSGTAFTLKISRVEAEDVGVYYCMQHLEYPFTFGGGTKLEIKR
IC50 (nM), antagonist activity measured by calcium flux assay [4]: 25.3 nM

B4: mouse antibody 80E4D1F11 (MAb 3) (antibody, V domains shown)
VH: EVQLVESGGGLVQPKGSLKLSCAASGFSFNTYAMNWVRQAPGKGLEWVARIRSKSNNYATYYADSVKARFTISRDDSESMLYLQMNNLKTEDTAMYFCVRGGTYGSTSYFDYWGQGTTLTVSS
VL: DIVMTQAAPSVPVTPGESVSISCRSSKSLLHSNGNTYLYWFLQRPGQSPQLLIYRMSNLASGVPDRFSGSGSGTAFTLRISRVEAEDVGVYYCMQHLEYPFTFGGGTKLEIK
notes: Mouse monoclonal antibody from a hybridoma; also called A3
IC50 (nM), antagonist activity measured by β-arrestin assay [1]: 7.11 nM
binding result (human CCR4 (hCCR4)): no binding
inhibition of β-arrestin production (CCR8 CHO-K1 β-arrestin bioassay, 2 nM hCCL1, subclone supernatant) [2]: ≥ 50%

B5: humanized antibody 41E1C2A5-HC4+LC2 (antibody, human IgG1, kappa, V domains shown)
VH: EVQLVESGGGLVQPGGSLKLSCAASGFSFNAYAMNWVRQASGKGLEWVARIRSKSNNYATYYADSVKDRFTISRDDSENTAYLQMNSLKTEDTAVYFCVRGGTYGSSSYFDYWGQGTTVTVSS
VL: DIVMTQSPLSLPVTPGEPASISCRSSKSLLHSNGNTYLYWFLQKPGQSPQLLIYRMSNLASGVPDRFSGSGSGTAFTLKISRVEAEDVGVYYCMQHLEYPFTFGGGTKLEIKR
IC50 (nM), antagonist activity measured by calcium flux assay [4]: 13.1 nM

B6: murine-human chimeric (human IgG1) antibody 504E12D8D12 (antibody, V domains shown)
VH: EVQLVESGGGLVQPKGSLKLSCAASGFSFNTYAMNWVRQAPGKGLEWVARIRTKSNNYATYYAASVKDRFTISRDDSETMLYLQMNNLKTEDTAMYYCVRGGSGLNYVRYFDVWGTGTTVTVSS
VL: DIVMTQAAPSVFVIPGESVSISCRSSKSLLHSNGNTYLYWFLQRPGQSPQLLIYRMSNLASGVPDRFSGSGSGSAFTLRISRVEAEDVGVYYCMQHLEYPFTFGSGTKLEIKR
notes: Chimeric antibody derived from murine antibody A18 and human IgG1; also called chimeric 504E12D8D12 mAb
IC50 (nM), antagonist activity measured by β-arrestin assay [1]: 0.867 nM
binding result (human CCR4 (hCCR4)): no binding
EC50 of ADCC activity (column head prints IC50 (nM)); ADCC/NFAT-reporter-Jurkat bioassay [3]: 0.015 nM

B7: humanized antibody 504E12D8D12-HC1+LC1 (antibody, human IgG1, kappa, V domains shown)
VH: EVQLVESGGGLVQPGGSLKLSCAASGFSFNTYAMNWVRQASGKGLEWVGRIRTKSNNYATYYAASVKDRFTISRDDSKNTAYLQMNSLKTEDTAVYYCTRGGSGLNYVRYFDVWGQGTTVTVSS
VL: DIVMTQTPPSLPVNPGEPASISCRSSKSLLHSNGNTYLYWYLQKPGQSPQLLIYRMSNLASGVPDRFSGSGSGSDFTLKISWVEAEDVGVYYCMQHLEYPFTFGGGTKLEIKR
binding result [5]: no binding
IC50 (nM), antagonist activity measured by calcium flux assay [6]: 8.6 nM
Kd [7]: 0.072 nM

B8: humanized antibody 504E12D8D12-HC1+LC1(G34A) (antibody, human IgG1, kappa, V domains shown)
VH: EVQLVESGGGLVQPGGSLKLSCAASGFSFNTYAMNWVRQASGKGLEWVGRIRTKSNNYATYYAASVKDRFTISRDDSKNTAYLQMNSLKTEDTAVYYCTRGGSGLNYVRYFDVWGQGTTVTVSS
VL: DIVMTQTPPSLPVNPGEPASISCRSSKSLLHSNANTYLYWYLQKPGQSPQLLIYRMSNLASGVPDRFSGSGSGSDFTLKISWVEAEDVGVYYCMQHLEYPFTFGGGTKLEIKR
IC50 (nM), antagonist activity measured by calcium flux assay [6]: 14.4 nM
Kd [7]: 0.072 nM
binding result [8]: no binding

B9: bispecific antibody FP578-01 (CCR8/CTLA-4) (bispecific antibody, human IgG1, kappa)
heavy: not shown
light: DIVMTQTPPSLPVNPGEPASISCRSSKSLLHSNANTYLYWYLQKPGQSPQLLIYRMSNLASGVPDRFSGSGSGSDFTLKISWVEAEDVGVYYCMQHLEYPFTFGGGTKLEIKRTVAAPSVFIFPPSDEQLKSGTASVVCLLNNFYPREAKVQWKVDNALQSGNSQESVTEQDSKDSTYSLSSTLTLSKADYEKHKVYACEVTHQGLSSPVTKSFNRGEC
binding result [9]: binds
IC50 (nM), antagonist activity measured by β-arrestin assay [10]: 4.26 nM
Kd [11]: 0.102 nM

B10: bispecific antibody FP578-02 (CCR8/CTLA-4) (bispecific antibody, human IgG1, kappa)
heavy: not shown
light: DIVMTQTPPSLPVNPGEPASISCRSSKSLLHSNGNTYLYWYLQKPGQSPQLLIYRMSNLASGVPDRFSGSGSGSDFTLKISWVEAEDVGVYYCMQHLEYPFTFGGGTKLEIKRTVAAPSVFIFPPSDEQLKSGTASVVCLLNNFYPREAKVQWKVDNALQSGNSQESVTEQDSKDSTYSLSSTLTLSKADYEKHKVYACEVTHQGLSSPVTKSFNRGEC
IC50 (nM), antagonist activity measured by β-arrestin assay [10]: 3.6 nM
Kd [11]: 0.104 nM
binding result [12]: binds

B11: murine-human chimeric (human IgG1) antibody 531B9B1C9 (antibody, V domains shown)
VH: EVQLVESGGGLVQPKGSLKLSCAASGFSFNAYAMNWVRQAPGKGLDWVARIRSKSNNYATYYADSVKDRFTISRDDSESMLYLQMNNLKTEDTAMYFCVRQTYGSRDYAMDYWGQGTSVTVSS
VL: DVVMTQTPLSLPVSLGDQASISCRSSQSLVHSNGNTYLHWYLQKPGQSPKLLIYKVSNRFSGVPDRFSGSGSGTDFTLKISRVEAEDLGVYFCCQSTHVPPYTFGGGTKLEIKR
notes: Chimeric antibody derived from murine antibody A13 and human IgG1
IC50 (nM), antagonist activity measured by β-arrestin assay [1]: 2.18 nM
binding result (human CCR4 (hCCR4)): no binding
EC50 of ADCC activity (column head prints IC50 (nM)); ADCC/NFAT-reporter-Jurkat bioassay [3]: 0.028 nM
